Patent publication US20260274985A1 (MYTHIC THERAPEUTICS, published 2026)
Positions count from the first letter of the chain named. Each block holds one binder with its values, some of them ahead of it.

What was measured:
[1] = target: T1, Human TROP2 Protein, His Tag (human, UniProt P09758 27-274); experiment: BLI (Octet) [2/2]
T1 construct: Bought protein; also called TACSTD2; not shown: His tag
T1 sequence (looked up): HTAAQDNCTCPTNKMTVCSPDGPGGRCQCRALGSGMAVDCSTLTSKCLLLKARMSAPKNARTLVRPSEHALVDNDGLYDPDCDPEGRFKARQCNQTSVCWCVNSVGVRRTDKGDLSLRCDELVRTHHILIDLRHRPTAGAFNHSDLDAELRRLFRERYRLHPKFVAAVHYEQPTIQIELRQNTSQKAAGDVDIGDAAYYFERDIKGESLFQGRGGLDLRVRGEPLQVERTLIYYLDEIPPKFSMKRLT
Protocol: (§1) After allowing for four days of protein expression, cell culture supernatants were collected, quantified by SDS-PAGE analysis (DNS), and the pH dependence of the variant was evaluated using biolayer interferometry (BLI) on an Octet RED 96e instrument. Briefly, cell culture supernatants were diluted based on qualitative expression level of the variant determined by visual examination of SDS-PAGE gels, 5 μL of cell culture supernatant was diluted into 195 μL of 1×PBST, pH 7.4 for high expressors, 25 μL of cell culture supernatant was diluted into 175 μL of 1×PBST, pH 7.4 for medium expressors and 100 μL of cell culture supernatant was diluted into 100 μL of 1×PBST, pH 7.4 for low expressors for loading onto the sensor tips. The resulting diluted supernatants were then captured on an anti-human Fc sensor (Forte Bio). A baseline was established using 1×PBST (50 mM Potassium Phosphate Buffer+150 mM NaCl+0.05% Tween 20) pH 7.4, and the sensor was associated with 50 nM of TROP2 (Human TROP2 Protein, His Tag, Acro Biosystems) in 1×PBST pH 7.4 for 120 sec to generate an association curve. In the dissociation phase, the antibody-antigen complex on the sensor was exposed to 1×PBST pH 7.4 or pH 5.4, for 300 sec. Association and dissociation phase curves were examined for the starting ABPC antibody (with no substitutions) and each corresponding antibody variant at pH 5.4 and pH 7.4 to inform on two criteria: a) enhanced dissociation (i.e., higher koff values) at pH 5.4 due to histidine or alanine substitution compared to the starting ABPC, (with no substitutions), and b) reduced dissociation at pH 7.4 (i.e., lower koff values) compared to pH 5.4 in the antibody variant itself and with the starting ABPC (with no substitutions). […] It was also noted that while some mutations obliterated TROP2 binding, others were tolerated with little or n change in TROP2 binding kinetics.

[2] = target: T2, Human TROP2 Protein, His Tag (Acro Biosystems) (human, UniProt P09758 27-274); experiment: BLI (Octet)
T2 construct: not shown: His tag
T2 sequence (looked up): T1 sequence (looked up)

[3] = target: T3, Human TROP2 Protein, His Tag (Acro Biosystems) (human, UniProt P09758 27-274); experiment: BLI (Octet) [2/2]
T3 construct: Bought antigen used at 50 nM in the Octet screen; also called TACSTD2; not shown: His tag
T3 sequence (looked up): T1 sequence (looked up)
Protocol: as §1

B1: MYT11677 (antibody, V domains shown)
VH: QVQLVQSGAEVKKPGASVKVSCKASGYTFTTAGMQWVRQAPGQGLEWMGWINTHSGVPKYAEDFKGRVTISADTSTSTAYLQLSSLKSEDTAVYYCARSGFGSSYWYFDVWGQGTLVTVSS
VL: DIQMTQSPSSLSASVGDRVTITCHASQDVSTAVAWYQQKPGKAPKLLIYSASYRYTGVPSRFSGSGSGTDFTLTISSLQPEDFAVYYCQQHYITPLTFGQGTKLEIK
notes: IgG from supernatant; His at LCV position 24; also called datopotamab variant L1 01
binding result [1]: binds

B2: MYT11695 (antibody, V domains shown)
VH: B1 VH
VL: B1 VL with H24K, Q89H
notes: IgG from supernatant; His at LCV position 89; also called datopotamab variant L3 01
binding result [1]: binds

B3: MYT12373 (antibody, V domains shown)
VH: QVQLQQSGSELKKPGASVKVSCKASGYTFTNYGMNWVKQAPGQGLKWMGWINTYTGEPTYTDDFKGRFAFSLDTSVSTAYLQISSLKADDTAVYFCARGGFGSSYWYFDVWGQGSLVTVSS
VL: B1 VL with M4L, T20S, H24K, S30H, T31I, S60D, Q89H, I93H, Q100A, L104V
notes: sacituzumab VL 30, 89, 93 -> H
binding result [2]: binds

B4: MYT11700 (antibody, V domains shown)
VH: B1 VH
VL: B1 VL with H24K, T94H
notes: IgG from supernatant; His at LCV position 94; also called datopotamab variant L3 06
binding result [1]: binds

B5: MYT11694 (antibody, V domains shown)
VH: B1 VH
VL: B1 VL with H24K, T56H
notes: IgG from supernatant; His at LCV position 56; also called datopotamab variant L2 07
binding result [1]: binds

B6: MYT11681 (antibody, V domains shown)
VH: B1 VH
VL: B1 VL with H24K, D28H
notes: IgG from supernatant; His at LCV position 28; also called datopotamab variant L1 05
binding result [1]: binds

B7: MYT11689 (antibody, V domains shown)
VH: B1 VH
VL: B1 VL with H24K, A51H
notes: IgG from supernatant; His at LCV position 51; also called datopotamab variant L2 02
binding result [1]: binds

B8: MYT11686 (antibody, V domains shown)
VH: B1 VH
VL: B1 VL with H24K, V33H
notes: IgG from supernatant; His at LCV position 33; also called datopotamab variant L1 10
binding result [1]: binds

B9: MYT11696 (antibody, V domains shown)
VH: B1 VH
VL: B1 VL with H24K, Q90H
notes: IgG from supernatant; His at LCV position 90; also called datopotamab variant L3 02
binding result [1]: binds

B10: MYT11684 (antibody, V domains shown)
VH: B1 VH
VL: B1 VL with H24K, T31H
notes: IgG from supernatant; His at LCV position 31; also called datopotamab variant L1 08
binding result [1]: binds

B11: MYT11693 (antibody, V domains shown)
VH: B1 VH
VL: B1 VL with H24K, Y55H
notes: IgG from supernatant; His at LCV position 55; also called datopotamab variant L2 06
binding result [1]: binds

B12: MYT11697 (antibody, V domains shown)
VH: B1 VH
VL: B1 VL with H24K, H91A
notes: IgG from supernatant; Ala at LCV position 91 (starting residue His); also called datopotamab variant L3 03
binding result [1]: binds

B13: MYT12370 (antibody, V domains shown)
VH: B3 VH
VL: B1 VL with M4L, T20S, H24K, S30H, T31I, A51H, S60D, I93H, Q100A, L104V
notes: sacituzumab VL 30, 51, 93 -> H
binding result [2]: binds

B15: MYT11701 (antibody, V domains shown)
VH: B1 VH
VL: B1 VL with H24K, P95H
notes: IgG from supernatant; His at LCV position 95; also called datopotamab variant L3 07
binding result [1]: binds

B17: MYT11683 (antibody, V domains shown)
VH: B1 VH
VL: B1 VL with H24K, S30H
notes: IgG from supernatant; His at LCV position 30; also called datopotamab variant L1 07
binding result [1]: binds

B18: MYT11692 (antibody, V domains shown)
VH: B1 VH
VL: B1 VL with H24K, R54H
notes: IgG from supernatant; His at LCV position 54; also called datopotamab variant L2 05
binding result [1]: binds

B21: MYT11756 (antibody, V domains shown)
VH: QVQLQESGPGLVKPSETLSLTCTVSGGSISSYGVHWIRQPPGKGLEWIGVIWTSGVTDYNSALMGRVTISVDTSKNQFSLKLSSVTAADTAVYYCARDGDYDRYTMDYWGQGTLVTVSS
VL: DIVMTQSPDSLAVSLGERATINCRASKSVSTSGYSHMHWYQQKPGQPPKLLIYLASNLESGVPDRFSGSGSGTDFTLTISSLQAEDVAVYYCQHSRELPYTFGQGTKLEIK
notes: hu7E6SVG variant, His at LCV position 36 (L1 13); screened as IgG in Expi293 supernatant
binding result [3]: binds

Continued, values first:

binding result [1]: no binding (tested: 50 nM)
B14: MYT11702 (antibody, V domains shown)
VH: B1 VH
VL: B1 VL with H24K, L96H
notes: IgG from supernatant; His at LCV position 96; also called datopotamab variant L3 08

binding result [1]: no binding (tested: 50 nM)
B16: MYT11703 (antibody, V domains shown)
VH: B1 VH
VL: B1 VL with H24K, T97H
notes: IgG from supernatant; His at LCV position 97; also called datopotamab variant L3 09

binding result [1]: no binding (tested: 50 nM)
B19: MYT11698 (antibody, V domains shown)
VH: B1 VH
VL: B1 VL with H24K, Y92H
notes: IgG from supernatant; His at LCV position 92; also called datopotamab variant L3 04

binding result [1]: no binding (tested: 50 nM)
B20: MYT11685 (antibody, V domains shown)
VH: B1 VH
VL: B1 VL with H24K, A32H
notes: IgG from supernatant; His at LCV position 32; also called datopotamab variant L1 09

binding result [3]: binds
B22: MYT11772 (antibody, V domains shown)
VH: B21 VH
VL: B21 VL with H36Y, P99H
notes: hu7E6SVG variant, His at LCV position 99 (L3 07); screened as IgG in Expi293 supernatant

binding result [3]: binds
B23: MYT11774 (antibody, V domains shown)
VH: B21 VH
VL: B21 VL with H36Y, T101H
notes: hu7E6SVG variant, His at LCV position 101 (L3 09); screened as IgG in Expi293 supernatant

binding result [3]: binds
B24: MYT11763 (antibody, V domains shown)
VH: B21 VH
VL: B21 VL with H36Y, L58H
notes: hu7E6SVG variant, His at LCV position 58 (L2 05); screened as IgG in Expi293 supernatant

binding result [3]: binds
B25: MYT11765 (antibody, V domains shown)
VH: B21 VH
VL: B21 VL with H36Y, S60H
notes: hu7E6SVG variant, His at LCV position 60 (L2 07); screened as IgG in Expi293 supernatant

binding result [3]: binds
B26: MYT11762 (antibody, V domains shown)
VH: B21 VH
VL: B21 VL with H36Y, N57H
notes: hu7E6SVG variant, His at LCV position 57 (L2 04); screened as IgG in Expi293 supernatant

binding result [3]: binds
B27: MYT11759 (antibody, V domains shown)
VH: B21 VH
VL: B21 VL with H36Y, L54H
notes: hu7E6SVG variant, His at LCV position 54 (L2 01); screened as IgG in Expi293 supernatant

binding result [3]: binds
B28: MYT11764 (antibody, V domains shown)
VH: B21 VH
VL: B21 VL with H36Y, E59H
notes: hu7E6SVG variant, His at LCV position 59 (L2 06); screened as IgG in Expi293 supernatant

binding result [3]: no binding (tested: 50 nM)
B29: MYT11768 (antibody, V domains shown)
VH: B21 VH
VL: B21 VL with H36Y, S95H
notes: hu7E6SVG variant, His at LCV position 95 (L3 03); screened as IgG in Expi293 supernatant

binding result [3]: binds
B30: MYT11761 (antibody, V domains shown)
VH: B21 VH
VL: B21 VL with H36Y, S56H
notes: hu7E6SVG variant, His at LCV position 56 (L2 03); screened as IgG in Expi293 supernatant

binding result [3]: binds
B31: MYT11758 (antibody, V domains shown)
VH: B21 VH
VL: B21 VL with H36Y, H38A
notes: hu7E6SVG variant, Ala in place of His at LCV position 38 (L1 15); screened as IgG in Expi293 supernatant

binding result [3]: binds
B32: MYT11767 (antibody, V domains shown)
VH: B21 VH
VL: B21 VL with H36Y, H94A
notes: hu7E6SVG variant, Ala in place of His at LCV position 94 (L3 02); screened as IgG in Expi293 supernatant

binding result [3]: binds
B33: MYT11760 (antibody, V domains shown)
VH: B21 VH
VL: B21 VL with H36Y, A55H
notes: hu7E6SVG variant, His at LCV position 55 (L2 02); screened as IgG in Expi293 supernatant

binding result [3]: no binding (tested: 50 nM)
B34: MYT11771 (antibody, V domains shown)
VH: B21 VH
VL: B21 VL with H36Y, L98H
notes: hu7E6SVG variant, His at LCV position 98 (L3 06); screened as IgG in Expi293 supernatant
